Source: publication PMC7954794, “Protein context shapes the specificity of SH3 domain-mediated interactions in vivo” (Nature Communications, 2021)

B1: YLR206W (protein, UniProt Q05785 1-613, looked up)
Epsin-2: MSKQFVRSAKNMMKGYSSTQVLVRDATANDSRTPSIDTLDDLAQRSYDSVDFFEIMDMLDKRLNDKGKYWRHVAKSLTVLDYLVRFGSENCVLWCRENFYVIKTLREFRHENESGFDEGQIIRVKAKELVSLLNDEERLREERSMNTRNRRANRAARPRPRRQRTRSNPHDSSPSYQDDLEKALEESRITAQEDEQRRRELAQYDDEDPDFQAALQLSKEEEELKQLQELQRLQKQQQSLSQFQAPLQQQQPQQQPAYYDIFGNPISQDEYLQYQYQQDQEQAMAQQRWLDQQQEQQQLAEQQYFQQQQQAAAAASALQQQQTAANMQQQQQQPADFQQPLPTGSNNPFSMDNLERQKQEQQHAQLQRQQEEARQQQEQLKLQQLQRQQQEEAQLHQKRQEEAQLQQQQAQLLQQQAQFQQQQPLKQTRTGNQSISDKYSDLNTLLATGTGIDTFGNTGEARIPAQHTKTGTFINSQGTGYKQVTNEPKNNPFLSNQYTGLPSTNIVPTQTGYGFGNQPQSPPTNSPQQNPTGISYSQPQQQQQPQQQPQYMQNFQQQQPQYAQNFQQQPQYTQNYQQQPQYIQPHQQQQQQQQQQQQQQGYTPDQGVSLIDL
B2: YKR001C (protein, UniProt P21576 1-704, looked up)
Vacuolar protein …: MDEHLISTINKLQDALAPLGGGSQSPIDLPQITVVGSQSSGKSSVLENIVGRDFLPRGTGIVTRRPLVLQLINRRPKKSEHAKVNQTANELIDLNINDDDKKKDESGKHQNEGQSEDNKEEWGEFLHLPGKKFYNFDEIRKEIVKETDKVTGANSGISSVPINLRIYSPHVLTLTLVDLPGLTKVPVGDQPPDIERQIKDMLLKYISKPNAIILSVNAANTDLANSDGLKLAREVDPEGTRTIGVLTKVDLMDQGTDVIDILAGRVIPLRYGYIPVINRGQKDIEHKKTIREALENERKFFENHPSYSSKAHYCGTPYLAKKLNSILLHHIRQTLPEIKAKIEATLKKYQNELINLGPETMDSASSVVLSMITDFSNEYAGILDGEAKELSSQELSGGARISYVFHETFKNGVDSLDPFDQIKDSDIRTIMYNSSGSAPSLFVGTEAFEVLVKQQIRRFEEPSLRLVTLVFDELVRMLKQIISQPKYSRYPALREAISNQFIQFLKDATIPTNEFVVDIIKAEQTYINTAHPDLLKGSQAMVMVEEKLHPRQVAVDPKTGKPLPTQPSSSKAPVMEEKSGFFGGFFSTKNKKKLAALESPPPVLKATGQMTERETMETEVIKLLISSYFSIVKRTIADIIPKALMLKLIVKSKTDIQKVLLEKLYGKQDIEELTKENDITIQRRKECKKMVEILRNASQIVSSV
B3: YIL095W (protein, UniProt P40494 1-810, looked up)
Actin-regulating kinase PRK1: MNTPQISLYEPGTILTVGSHHAKIIKYLTSGGFAQVYTAEISPPDPYSNANIACLKRVIVPHKQGLNTLRAEVDAMKLLRNNKHVVSYIDSHAARSVNGIAYEVFVLMEFCERGGLIDFMNTRLQNRLQESEILEIMSQTVQGITAMHALQPPLIHRDIKIENVLISHDGLYKVCDFGSVSGVIRPPRNTQEFNYVQHDILTNTTAQYRSPEMIDLYRGLPIDEKSDIWALGVFLYKICYYTTPFEKSGEAGILHARYQYPSFPQYSDRLKNLIRLMLMEAPSQRPNICQVLEEVSRLQNKPCPIRNFYLLRAMNQNANTQLAGEPSSTTYVPTQKFIPVQSLQSINQPPNMMPVTHVSTTPNLGTFPISINDNNKTEVTAHAGLQVGSHSNLTSPLMKTKSVPLSDEFASLYYKELHPFQKSQTFKSVESFQSPQRKSMPPLSLTPVNNDIFDRVSAINRPNNYVDSETQTIDNMAVPNLKLSPTITSKSLSSTKEIAAPDNINGSKIVRSLSSKLKKVITGESRGNSPIKSRQNTGDSIRSAFGKLRHGFTGNSVNNSRSASFDNNNVNGNGNNTNRRLVSSSTSSFPKFNSDTKRKEESDKNQRLEKRRSMPPSILSDFDQHERNNSRTGSRDYYRSHSPVKKTQASAKTTSKPTLIPDNGNVNINQEKKESIQRRVHNLLKSSDDPVTYKSASGYGKYTDIGTETSNRHSSVRITPITEEKFKKTLKDGVLDIKTKSNGKDKSRPPRPPPKPLHLRTEIQKIRNFSRLQSKKLPIERISSEATETIVDVNVDDLEADFRKRFPSKV
B4: YGR037C (protein, UniProt P31787 1-87, looked up)
Acyl-CoA-binding protein: MVSQLFEEKAKAVNELPTKPSTDELLELYALYKQATVGDNDKEKPGIFNMKDRYKWEAWENLKGKSQEDAEKEYIALVDQLIAKYSS
B5: YJL201W (protein, UniProt P32525 1-599, looked up)
Protein ECM25: MIDINVNNIFFRSYSVDPNSGHAIYVFDSTYLPASDEIGDKQVYDLLINALMDRLVMKLPQAPYSLVIFSSGFSQRKISWVYGIKMFAKLPKETKFYLQKIFIVHESFFVRSVYQVISNAMNFNFLDSKDSQHDFPSLVHVLDLTSLSELIDITRLRISLNVYLYDYQIREHINVPEEYYNRLTPLAIRQYRQLVFDKIFKKLQNDALLCELIFQKPGNYKKVNIFLDIIKRNNYIDLSQWDIYSLASVWLNYFIKNKAKPLIPIELIPLPIVDDLKFTSETFRKIIKFNQYQDLFMVIIPFFNRIIAHGESTKHDSRTLSKALTPALCKEKLSMMTNDRLAIGSRYIKNLLDFFPEIAKEISSPPSSVSSSSTIPVLPKPRKSSPTRYSELGCLTLPRSRSPSPQRSVTSPTYTPVALQNTPVLKPKSSSRNVSSPSFNAKPPLPIKAVTRPQLSLTSNSNTDLALASSSTDTLSSPTKTPSADSLPLSNSSTDLTISDNIKEMVKDEPAKDKNSVETDIFVQQFESLTLVQNAKIKKFDKELQEKKKKNETTSKTADKFSQKGYSDIKASNKVSRLAALYEERLQGLQVMNEMKQRW

System: 575 putative partners (preys) of 22 WT SH3-containing proteins
Assay: DHFR-PCA on solid medium, WT and SH3-deleted baits (Fig. 1B)
Format: cell-based, Saccharomyces cerevisiae
Design: key to Score: 0: SH3-independent; 1: SH3-dependent PPIs; 2: SH3-inhibited PPIs
Details: bait SLA1-2, DHFR-PCA, label = prey; Replicates 4 (2 for YCR009C, YDR388W)
Text: To assess the requirement of SH3 domains for PPIs in vivo, we first measured binary interactions between 22 WT SH3-containing proteins (Supplementary Fig. 1A) as baits and 575 putative partners from their interconnected signaling networks using the dihydrofolate reductase protein–fragment complementation assay (DHFR-PCA) in the budding yeast Saccharomyces cerevisiae. About 33% (202/607) of the PPIs detected were described before, mostly by direct methods (Supplementary Fig. 1B, C)[11]. We repeated the experiments with baits in which the SH3s were individually replaced with a flexible linker by genome editing (SH3 domain deletion/stuffing, Fig. 1A). The stuffer DNA sequence ([…]) codes for a small flexible poly-Gly with Ser peptide ([…]) that is inspired by previous experiments[12],[13]. About a third of the SH3-containing protein interactome is qualitatively or quantitatively SH3-dependent (171 PPIs out of 607, Fig. 1B and Supplementary Fig. 1B, C). We validated the vast majority of the quantitative changes in low-throughput experiments and excluded that this is simply due to changes in protein abundance in most cases (Supplementary Fig. 1D–G). SH3-binding motifs[14] are more frequent in the SH3-dependent PPI partners when compared to sequences from random proteins, SH3-independent PPI partners or PPI partners that are stronger or gained following SH3 deletions (p values = 1.5 × 10^−17, 0.0038 and 2.1 × 10^−08, respectively; Mann–Whitney test, one-tailed, Fig. 1C). The changes we measure are therefore enriched for PPIs that depend on the direct interactions of the domains with the PPI partners.
The complete list of strains, primers, and gRNAs used in this study can be found in Supplementary Tables 1–3. All constructed yeast strains were validated by polymerase chain reaction (PCR) and confirmed by Sanger sequencing of the locus of interest. Bait strains for the DHFR-PCA experiments were constructed as follows. The genes of interest were fused at their genomic 3′ end by replacing the stop codon with a linker ([…]), the DHFR F[1,2] followed by a smaller linker (GGGGS), a 1× FLAG tag ([…]) and the NATMX4 resistance cassette via homologous recombination (all amplified from pAG25-DHFR[1,2]-linker-FLAG). The set of 615 prey strains (DHFR F[3] fusions in the BY4742 background) were retrieved from the Yeast Protein Interactome Collection[43] with the exception of 73 that were reconstructed (Supplementary Tables 1 and 2). Knockout strains were taken from the yeast knockout collection except for ABP1, BEM1, BZZ1, and SLA1, which were reconstructed by replacing the ORFs with the NATMX4 resistance cassette by homologous recombination in the BY4741 background.
Yeast SH3 domain genomic sequences were replaced by CRISPR–Cas9 genome editing. Each SH3 domain (as defined by the SMART database V8.0 except for Ysc84 SH3 (as defined by PROSITE), see Source Data for all SH3 sequences and Supplementary Table 1 for primers used) was specifically targeted by one gRNA[46]. Yeast competent cells were co-transformed with a pCAS plasmid (Addgene plasmid 60847[47]) expressing both the gRNA of interest and Streptococcus pyogenes Cas9[46] and a donor DNA sequence (stuffer) with 60 bp homology arms surrounding the SH3 DNA sequence. The Stuffer DNA was either PCR amplified or digested from a plasmid. The stuffer DNA sequence ([…]) codes for a small flexible linker ([…]) inspired by protein linkers used in structural biology[12],[13]. This type of linker is frequently used for fusing proteins without affecting the structure of the linked proteins.
The overall DHFR-PCA pipeline is based on Tarassov et al.[43] and the procedures have also been published as a visualized protocol. The screens were performed with robotically manipulated pin tools (BM5-SC1, S&P Robotics Inc.). First, the preys were cherry-picked from 96-well plates to omnitrays in a 384 format on YPD + HPH solid media. […]

Row | Molecule | medrep (log2 median colony size normalized to plate background, PCA score)
1 | B1 | 2.135
2 | B2 | 1.835
3 | B3 | 1.8519
4 | B4 | 1.385
5 | B5 | 1.384

Same assay, conditions: bait SLA1-2, label = prey

Row | Molecule | Score
6 | B1 | 1
7 | B2 | 1
8 | B3 | 1
9 | B4 | 1
10 | B5 | 1

Same assay, conditions: bait SLA1-2, label = prey; only significant differences shown; PPIs completely lost have a ratio of 0.1, gained PPIs 2.5

Row | Molecule | Ratio (SH3-deleted/WT medrep)
11 | B1 | 0.1
12 | B2 | 0.1
13 | B3 | 0.1
14 | B4 | 0.1
15 | B5 | 0.1

Same assay, conditions: bait SLA1-3, DHFR-PCA, label = prey; Replicates 4 (2 for YCR009C, YDR388W, YIL033C)

Row | Molecule | medrep (log2 median colony size normalized to plate background, PCA score)
16 | B1 | 2.135
17 | B2 | 1.835
18 | B3 | 1.8519
19 | B4 | 1.385
20 | B5 | 1.384

Same assay, conditions: bait SLA1-3, label = prey

Row | Molecule | Score
21 | B1 | 0
22 | B2 | 0
23 | B3 | 0
24 | B4 | 1
25 | B5 | 0

Same assay, conditions: bait SLA1-3, label = prey; only significant differences shown; PPIs completely lost have a ratio of 0.1, gained PPIs 2.5

Row | Molecule | Ratio (SH3-deleted/WT medrep)
26 | B4 | 0.1

System: ABP1
Assay: DHFR-PCA on solid medium, bait ABP1 (Fig. 1B)
Format: cell-based, Saccharomyces cerevisiae
Details: bait ABP1, label = prey; 2-4 replicates
Text: Supplement 41467_2021_21873_MOESM8_ESM.xlsx, sheet "Fig1B" | column: medsize; medrep; Ratio; Score

Row | Molecule | medrep (log2 median colony size normalized to plate background, PCA score)
27 | B1 | 2.696
28 | B2 | 2.787
29 | B3 | 4.25
30 | B4 | 3.115
31 | B5 | 3.816
